Data on two proteins can be found in PMC12342048, “Cleavage of Cartilage Oligomeric Matrix Protein (COMP) by ADAMTS4 generates a neoepitope associated with osteoarthritis and other forms of degenerative joint disease” (Matrix biology : journal of the International Society for …, 2024).

As usually defined, the stoichiometry N is a count of units in the complex or per binding partner.

Data set [1] deals with the molecule itself. Briefly: non-reducing SDS-PAGE; purified COMP, 4 μg/lane, 4–12 % SDS-PAGE under non-reducing conditions, Coomassie Brilliant Blue staining; under reducing conditions (5 % β-mercaptoethanol) a monomer band at ~100 kDa.
Data set [2] deals with the molecule itself. Put plainly: non-reducing SDS-PAGE with immunoblot; hCOMP (520 nM) incubated with ADAMTS4 WT (12 nM) for 2 h at 37 °C in TNC-B; non-reducing SDS-PAGE, immunoblot with anti-QQS77 neoepitope antibody.

B1: Drosophila melanogaster S2-expressed human COMP (Cartilage Oligomeric Matrix Protein) (natural protein)
chain: not shown
modifications: N-linked glycans (shown by PNGase F)
notes: Cartilage Oligomeric Matrix Protein, human; the Drosophila BiP secretion signal is fused to Gly22 of COMP and cleaved off before secretion to give a native N terminus; numbers count on NP_000086.2 (precursor); on non-reducing SDS-PAGE a mixture of monomers to pentamers was seen; also called iCOMP; thrombospondin 5; source: Drosophila melanogaster Schneider 2 (S2) cells, purified from conditioned …
Consider B1, for which, in data set [1], the binding result is on record as “binds”.

B2: fully cleaved N-terminal domain (NTD) of COMP ending at the QQS77 neoepitope (domain or fragment, human, UniProt P49747-1 21-77, looked up)
chain: QGQSPLGSDLGPQMLRELQETNAALQDVRELLRQQVREITFLKNTVMECDACGMQQS
notes: Cartilage Oligomeric Matrix Protein, human, N-terminal product of the cleavage at the S77-V78 bond; numbers count on NP_000086.2 (precursor); Made by proteolysis of m2; also called fully cleaved NTD pentamer; N-terminal cleavage fragment; source: hCOMP (520 nM, purified from Freestyle 293-F medium) digested with purified ADAMTS4 (12 nM), 2 h, 37 °C
On to B2, for which, in data set [2], the “stoichiometry N” value stood at 5.
